Assay [1] addresses CXCL8-(1-66) P32G mutant, 15N-labelled (human, 15N-labelled). The assay is described as follows: NMR titration.
Assay [2] deals with CXCL8-(1-66) truncated monomer (human). The assay is described as follows: NMR titration.

Here are results for one molecule from paper PMC4157346 (The Biochemical journal, 2013).

As a reminder, the Kd is a measure of binding affinity in units of concentration. Higher therefore signals lower affinity.

Regarding LWTWFEDEFANATGMPPVEKDYSPCLVVTQTLNK [CXCR1 N-terminal domain peptide], the Kd in assay [1] was 11 ± 1 µM; in assay [2], 12 ± 2 µM.
